Laboratory results published in US20220220158A1.

Experiments:
[1] = biological target: antibodies of human serum sample 16CDV61197; assay: DAGS blocking; signal antigen m1 SS-ZIKA-NS1-wing
[2] = biological target: antibodies of human serum sample 16CDV61275; assay: DAGS blocking; signal antigen m1 SS-ZIKA-NS1-wing
[3] = biological target: antibodies of human serum sample 16CDV61278; assay: DAGS blocking; signal antigen m1 SS-ZIKA-NS1-wing
[4] = biological target: antibodies of human serum sample 16CDV61197; assay: DAGS blocking; signal antigen m3 S-ZIKA-NS1-ß-ladder
[5] = biological target: antibodies of human serum sample 16CDV61275; assay: as above
[6] = biological target: antibodies of human serum sample 16CDV61278; assay: as above

B1: Dengue virus type 4 NS1 full length aa 1-352 (protein)
chain: DTGCAVSWSGKELKCGSGIFVIDNVHTWTEQYKFQPESPARLASAILNAHEDGVCGIRSTTRLENIMWKQITNELNYVLWEGGHDLTVVAGDVKGVLSKGKRALAPPVNDLKYSWKTWGKAKIFTPEAKNSTFLIDGPDTSECPNERRAWNFLEVEDYGFGMFTTNIWMKFREGSSEVCDHRLMSAAIKDQKAVHADMGYWIESSKNQTWQIEKASLIEVKTCLWPKTHTLWSNGVLESQMLIPKAYAGPFSQHNYRQGYATQTVGPWHLGKLEIDFGECPGTTVTIQEDCDHRGPSLRTTTASGKLVTQWCCRSCTMPPLRFLGEDGCWYGMEIRPLSEKEENMVKSQVSA
[1]
  Blocking [%]: 0.891%
  Blocking [%] normalized to Zika: 1.2%
  counts: 2900 counts
[2]
  Blocking [%]: 2.48%
  Blocking [%] normalized to Zika: 3.3%
  counts: 3040 counts
[3]
  Blocking [%]: 4.5%
  Blocking [%] normalized to Zika: 4.9%
  counts: 2880 counts
[4]
  Blocking [%]: 31.6%
  Blocking [%] normalized to Zika: 50.3%
  counts: 2320 counts
[5]
  Blocking [%]: 25.1%
  Blocking [%] normalized to Zika: 27.3%
  counts: 2730 counts
[6]
  Blocking [%]: 2.6%
  Blocking [%] normalized to Zika: 3.7%
  counts: 2830 counts
